The record followed here is publication PMC6892922.

The labels stand for the following.
B1: Ehg1-Cub-LV [S. cerevisiae] / NubG-Hip1 [S. cerevisiae] (parent)
chain 1: MRSFVTNNDIPVGYVTPKFPSLYWPINNSKYNTAFLYYISDIWKFSLYWTLIFNGAFYVTAGVYASLTHRKKAGSVWIFVMYVLYGGVQGLTTGTVMGFLIGAIYRSGLFSMSTWVPLCCAVVQILFDVVLSYSMVGSVM
chain 2: MPRNPLKKEYWADVVDGFKPATSPAFENEKESTTFVTELTSKTDSAFPLSSKDSPGINQTTNDITSSDRFRRNEDTEQEDINNTNLSKDLSVRHLLTLAVGGAIGTGLYVNTGAALSTGGPASLVIDWVIISTCLFTVINSLGELSAAFPVVGGFNVYSMRFIEPSFAFAVNLNYLAQWLVLLPLELVAASITIKYWNDKINSDAWVAIFYATIALANMLDVKSFGETEFVLSMIKILSIIGFTILGIVLSCGGGPHGGYIGGKYWHDPGAFVGHSSGTQFKGLCSVFVTAAFSYSGIEMTAVSAAESKNPRETIPKAAKRTFWLITASYVTILTLIGCLVPSNDPRLLNGSSSVDAASSPLVIAIENGGIKGLPSLMNAIILIAVVSVANSAVYACSRCMVAMAHIGNLPKFLNRVDKRGRPMNAILLTLFFGLLSFVAASDKQAEVFTWLSALSGLSTIFCWMAINLSHIRFRQAMKVQERSLDELPFISQTGVKGSWYGFIVLFLVLIASFWTSLFPLGGSGASAESFFEGYLSFPILIVCYVGHKLYTRNWTLMVKLEDMDLDTGRKQVDLTLRREEMRIERETLAKRSFVTRFLHFWC
B2: Ehg1-Cub-LV [S. cerevisiae] / NubG-Bap2 [S. cerevisiae] (parent)
chain 1: B1 chain 1
chain 2: MLSSEDFGSSGKKETSPDSISIRSFSAGNNFQSSSSEKTYSKQKSGSDKLIHRFADSFKRAEGSTTRTKQINENTSDLEDGVESITSDSKLKKSMKSRHVVMMSLGTGIGTGLLVANAKGLHYGGPAALIIGYILVSFVTYFMIQAAGEMAVTYPTLPANFNAYSSIFISKSFGFATVWLYCFQWLTVLPLELITASMTIQFWNDKINPDIYILIFYVFLVFIHFFGVKAYGETEFIFNCCKILMIAGFIILSIVINCGGAGNDGYIGATYWHNPGAFAGDTSIGRFKNVCYILVTAYFSFGGMELFALSVQEQSNPRKSTPVAAKRSIYRIVVIYLLTMILIGFNVPYNDDQLMGAGGSATHASPYVLAASIHGVKIVPHIINAVILISVVSVANSSLYAGPRLICSLAQQGYAPKFLDYVDREGRPLRALIVCCVFGVIAFVAASSKEEIVFTWLAAIAGLSELFTWTSIMLSHLRFRQAMKVQGRSLDELGYKATTGIWGSIYGVFFNILVFVAQFWVALAPLGNGGKCDAESFFQNYLAFPIWLAFYFGYMVYNRDFTLLNPLDKIDLDFHRRIYDPELMRQEDEENKEKLRNMSLMRKAYHFWC
B3: Ehg1-Cub-LV [S. cerevisiae] / NubG-Fur4 [S. cerevisiae] (parent)
chain 1: B1 chain 1
chain 2: MPDNLSLHLSGSSKRLNSRQLMESSNETFAPNNVDLEKEYKSSQSNITTEVYEASSFEEKVSSEKPQYSSFWKKIYYEYVVVDKSILGVSILDSFMYNQDLKPVEKERRVWSWYNYCYFWLAECFNINTWQIAATGLQLGLNWWQCWITIWIGYGFVGAFVVLASRVGSAYHLSFPISSRASFGIFFSLWPVINRVVMAIVWYSVQAYIAATPVSLMLKSIFGKDLQDKIPDHFGSPNATTYEFMCFFIFWAASLPFLLVPPHKIRHLFTVKAVLVPFASFGFLIWAIRRAHGRIALGSLTDVQPHGSAFSWAFLRSLMGCMANFSTMVINAPDFSRFSKNPNSALWSQLVCIPFLFSITCLIGILVTAAGYEIYGINYWSPLDVLEKFLQTTYNKGTRAGVFLISFVFAVAQLGTNISANSLSCGTDMSAIFPKFINIKRGSLFCAAMALCICPWNLMATSSKFTMALSAYAIFLSSIAGVVCSDYFVVRRGYIKLTHIYSHQKGSFYMYGNRFGINWRALAAYLCGVAPCLPGFIAEVGAPAIKVSDGAMKLYYLSYWVGYGLSFSSYTALCYFFPVPGCPVNNIIKDKGWFQRWANVDDFEEEWKDTIERDDLVDDNISVYEHEHEKTFI

The variants in the first test derive from B1. In words: split-ubiquitin yeast two-hybrid (growth of strain NMY51). To be noted: with NubG-Hip1 [S. cerevisiae]; sub-panel Ehg1–Hip1; SC–His medium; 24 h starting at OD600 0.1; NubG-vector control est. 0.48; parent: 1.8; read off a plot.
Regarding chain 1 F19A, the response stood at 1.5 OD600.
Still for that read-out and setting: the result for chain 1 P17A P20A reads 1.3 OD600.

The same test, now with this note: with NubG-Hip1 [S. cerevisiae]; sub-panel Ehg1–Hip1; SC–His–Ade medium; 24 h starting at OD600 0.1; NubG-vector control est. 0.20; parent: 0.73; read off a plot.
Turning to chain 1 F19A, the response worked out at 0.75 OD600.
Still for that read-out and setting: the result for chain 1 P17A P20A reads 0.5 OD600.

Variants of B2 are the subject of the next test. The description is as above. To be noted: with NubG-Bap2 [S. cerevisiae]; sub-panel Ehg1–Bap2; SC–His medium; 24 h starting at OD600 0.1; NubG-vector control est. 0.46; parent: 1.3; read off a plot.
Regarding chain 1 F19A, the response stood at 0.72 OD600.
As to chain 1 P17A P20A, the response came out at 0.5 OD600.

The test is the same for the next values; noted with them: with NubG-Bap2 [S. cerevisiae]; sub-panel Ehg1–Bap2; SC–His–Ade medium; 24 h starting at OD600 0.1; NubG-vector control est. 0.17; parent: 0.45; read off a plot.
Turning to chain 1 F19A, the response turned out to be 0.27 OD600.
In the case of chain 1 P17A P20A, the response is 0.17 OD600.

Another test covers variants of B3. Described as above. To be noted: with NubG-Fur4 [S. cerevisiae]; sub-panel Ehg1–Fur4; SC–His medium; 24 h starting at OD600 0.1; NubG-vector control est. 0.40; parent: 1.8; read off a plot.
With chain 1 P17A P20A, the response was found to be 0.45 OD600.
Still for that read-out and setting: the result for chain 1 F19A reads 0.65 OD600.

The same test, now with this note: with NubG-Fur4 [S. cerevisiae]; sub-panel Ehg1–Fur4; SC–His–Ade medium; 24 h starting at OD600 0.1; NubG-vector control est. 0.16; parent: 0.95; read off a plot.
For chain 1 P17A P20A, the response was 0.17 OD600.
chain 1 F19A: the response was found to be 0.22 OD600.
